Measurements: paper PMC12756002 (2025)

B1: Sis1-WT [yeast] / Ssa1-WT [yeast] (parent complex)
chain 1: MVKETKLYDLLGVSPSANEQELKKGYRKAALKYHPDKPTGDTEKFKEISEAFEILNDPQKREIYDQYGLEAARSGGPSFGPGGPGGAGGAGGFPGGAGGFSGGHAFSNEDAFNIFSQFFGGSSPFGGADDSGFSFSSYPSGGGAGMGGMPGGMGGMHGGMGGMPGGFRSASSSPTYPEEETVQVNLPVSLEDLFVGKKKSFKIGRKGPHGASEKTQIDIQLKPGWKAGTKITYKNQGDYNPQTGRRKTLQFVIQEKSHPNFKRDGDDLIYTLPLSFKESLLGFSKTIQTIDGRTLPLSRVQPVQPSQTSTYPGQGMPTPKNPSQRGNLIVKYKVDYPISLNDAQKRAIDENF
chain 2: not shown
B2: Sis1-WT [yeast] / full-length Rnq1 [yeast] (parent complex)
chain 1: B1 chain 1
chain 2: MDTDKLISEAESHFSQGNHAEAVAKLTSAAQSNPNDEQMSTIESLIQKIAGYVMDNRSGGSDASQDRAAGGGSSFMNTLMADSKGSSQTQLGKLALLATVMTHSSNKGSSNRGFDVGTVMSMLSGSGGGSQSMGASGLAALASQFFKSGNNSQGQGQGQGQGQGQGQGQGQGSFTALASLASSFMNSNNNNQQGQNQSSGGSSFGALASMASSFMHSNNNQNSNNSQQGYNQSYQNGNQNSQGYNNQQYQGGNGGYQQQQGQSGGAFSSLASMAQSYLGGGQTQSNQQQYNQQGQNNQQQYQQQGQNYQHQQQGQQQQQGHSSSFSALASMASSYLGNNSNSNSSYGGQQQANEYGRPQQNGQQQSNEYGRPQYGGNQNSNGQHESFNFSGNFSQQNNNGNQNRY
B3: Ssa1-WT [yeast] / Sis1-FLRnq1 complex (Sis1-WT premixed with denatured Rnq1) [yeast] (parent complex)
chain 1: not shown
chain 2: B1 chain 1
chain 3: B2 chain 2

Variants of: B1
Assay: ELISA; Ssa1 (200 nM) immobilized; Sis1 at 20 nM; detection with αSis1 antibody; parent: 130; read off a plot

Compared with chain 1 S49V, chain 1 N56L is lower in response: about 82 Abs 450nm for the first, about 75 Abs 450nm for the second.

First: chain 1 E53A
Second: chain 1 E53K
The response of the first is lower: about 78 Abs 450nm for the first, about 97 Abs 450nm for the second.

Variants of: B2
Assay: ELISA; 400 ng denatured FL Rnq1 immobilized; Sis1 at 20 nM; detection with Sis1-specific antibody; parent: 240; read off a plot

Compared with chain 1 N56L, chain 1 E53K is higher in response: about 60 Abs 450nm for the first, about 140 Abs 450nm for the second.

Going from chain 1 E53A to chain 1 S49V, the response rises from about 79 Abs 450nm to about 130 Abs 450nm.

Variants of: B3
Assay: ELISA; Denatured Rnq1 premixed with Sis1 and immobilized; Ssa1-WT at 20 nM; detection with αSsa1 antibody; parent: 230; read off a plot

Compared with chain 2 E53K, chain 2 E53A is higher in response: about 110 Abs 450nm for the first, about 120 Abs 450nm for the second.

Compared with chain 2 N56L, chain 2 S49V is higher in response: about 89 Abs 450nm for the first, about 170 Abs 450nm for the second.
